Measurements from PMC2885457.
Like-named read-outs stand apart in the source and are kept apart here.

Assays:
[1] = biological target: Giardia lamblia tryptophanyl-tRNA synthetase (Giardia lamblia (strain WB)); assay: SEC
[2] = biological target: Giardia lamblia tryptophanyl-tRNA synthetase (Giardia lamblia (strain WB)); assay: SEC; remark: listed apart in the source

Substance: Giardia lamblia tryptophanyl-tRNA synthetase (enzyme)
- stoichiometry N [1]: 2
- stoichiometry N [2]: 2
